# Laboratory results reported in article PMC12305717.
# How the values were obtained:
# [1] = molecular target: DnaK (E. coli Hsp70) (E. coli) (UniProt P0A6Y8)
# [2] = molecular target: Ssa1 (yeast cytosolic Hsp70) (yeast) (UniProt P10591)
# [3] = molecular target: Ssa1 (yeast cytosolic Hsp70) (yeast) (UniProt P10591); remark: listed apart in the source
# Ssa1 (yeast cytosolic Hsp70) (yeast), sequence (P10591 whole entry): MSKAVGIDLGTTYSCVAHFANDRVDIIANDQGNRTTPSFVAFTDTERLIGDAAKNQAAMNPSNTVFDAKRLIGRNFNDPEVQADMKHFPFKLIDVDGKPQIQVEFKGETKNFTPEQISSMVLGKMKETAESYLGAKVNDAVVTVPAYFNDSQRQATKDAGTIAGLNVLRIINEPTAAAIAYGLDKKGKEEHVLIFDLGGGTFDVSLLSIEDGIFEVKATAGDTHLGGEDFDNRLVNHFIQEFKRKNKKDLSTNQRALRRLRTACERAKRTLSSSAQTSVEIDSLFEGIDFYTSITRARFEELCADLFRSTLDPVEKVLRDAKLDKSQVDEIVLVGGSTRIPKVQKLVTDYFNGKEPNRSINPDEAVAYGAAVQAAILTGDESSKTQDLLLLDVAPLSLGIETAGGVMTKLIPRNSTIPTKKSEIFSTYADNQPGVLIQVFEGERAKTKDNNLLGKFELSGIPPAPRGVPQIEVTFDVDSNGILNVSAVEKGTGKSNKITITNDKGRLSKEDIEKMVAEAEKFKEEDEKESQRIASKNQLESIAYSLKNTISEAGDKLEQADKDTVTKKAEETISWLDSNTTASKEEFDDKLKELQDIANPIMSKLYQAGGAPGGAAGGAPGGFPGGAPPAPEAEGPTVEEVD
# DnaK (E. coli Hsp70) (E. coli), sequence (P0A6Y8 whole entry): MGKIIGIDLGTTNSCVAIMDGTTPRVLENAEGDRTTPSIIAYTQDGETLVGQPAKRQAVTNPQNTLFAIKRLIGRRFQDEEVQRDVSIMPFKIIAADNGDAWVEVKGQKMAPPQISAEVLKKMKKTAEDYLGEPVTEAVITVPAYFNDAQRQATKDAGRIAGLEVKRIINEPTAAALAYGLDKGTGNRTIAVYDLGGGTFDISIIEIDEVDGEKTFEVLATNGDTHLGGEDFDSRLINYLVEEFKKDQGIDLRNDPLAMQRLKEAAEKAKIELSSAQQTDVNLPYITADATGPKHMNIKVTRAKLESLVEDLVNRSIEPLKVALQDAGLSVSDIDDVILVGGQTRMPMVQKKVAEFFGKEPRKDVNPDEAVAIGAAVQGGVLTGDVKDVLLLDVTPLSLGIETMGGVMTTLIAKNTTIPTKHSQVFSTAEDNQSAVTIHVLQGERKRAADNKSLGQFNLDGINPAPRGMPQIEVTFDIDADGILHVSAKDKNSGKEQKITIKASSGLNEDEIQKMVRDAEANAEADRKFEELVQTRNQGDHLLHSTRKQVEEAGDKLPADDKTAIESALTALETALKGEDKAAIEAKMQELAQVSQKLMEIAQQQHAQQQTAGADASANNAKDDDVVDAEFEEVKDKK
binder,measurement,setting,value
GrpE (E. coli nucleotide exchange factor) (natural protein) MSSKEQKTPEGQAPEEIIMDQHEEIEAVEPEASAEQVDPRDEKVANLEAQLAEAQTRERDGILRVKAEMENLRRRTELDIEKAHKFALEKFINELLPVIDSLDRALEVADKANPDMSAMVEGIELTLKSMLDVVRKFGVEVIAETNVPLDPNVHQAIAMVESDDVAPGNVLGIMQKGYTLNGRTIRAAMVTVAKAKA,EC50 of GrpE for raising the yields of disaggregation and refolding of pre-aggregated MlucV by 4000 nM DnaK + 1000 nM DnaJ,[1],200 nM
"Sse1 (yeast Hsp110), wild type (natural protein) MSTPFGLDLGNNNSVLAVARNRGIDIVVNEVSNRSTPSVVGFGPKNRYLGETGKNKQTSNIKNTVANLKRIIGLDYHHPDFEQESKHFTSKLVELDDKKTGAEVRFAGEKHVFSATQLAAMFIDKVKDTVKQDTKANITDVCIAVPPWYTEEQRYNIADAARIAGLNPVRIVNDVTAAGVSYGIFKTDLPEGEEKPRIVAFVDIGHSSYTCSIMAFKKGQLKVLGTACDKHFGGRDFDLAITEHFADEFKTKYKIDIRENPKAYNRILTAAEKLKKVLSANTNAPFSVESVMNDVDVSSQLSREELEELVKPLLERVTEPVTKALAQAKLSAEEVDFVEIIGGTTRIPTLKQSISEAFGKPLSTTLNQDEAIAKGAAFICAIHSPTLRVRPFKFEDIHPYSVSYSWDKQVEDEDHMEVFPAGSSFPSTKLITLNRTGDFSMAASYTDITQLPPNTPEQIANWEITGVQLPEGQDSVPVKLKLRCDPSGLHTIEEAYTIEDIEVEEPIPLPEDAPEDAEQEFKKVTKTVKKDDLTIVAHTFGLDAKKLNELIEKENEMLAQDKLVAETEDRKNTLEEYIYTLRGKLEEEYAPFASDAEKTKLQGMLNKAEEWLYDEGFDSIKAKYIAKYEELASLGNIIRGRYLAKEEEKKQAIRSKQEASQMAAMAEKLAAQRKAEAEKKEEKKDTEGDVDMD",EC50 of Sse1 for raising the yields of disaggregation and refolding (luciferase activity after 2 h) of pre-aggregated MlucV or luciferase by 4000 nM Ssa1 + 1000 nM Sis1 with ATP,[2],100 nM
same,IC50 of excess Sse1 (above 250 nM) for inhibiting the disaggregation and refolding reaction of 4000 nM Ssa1 + 1000 nM Sis1; complete inhibition at equimolar Sse1 and Ssa1,[2],1200 nM
same,optimal concentration of WT Sse1 for activating the disaggregation/refolding of pre-aggregated luciferase by 6000 nM Ssa1 + 1000 nM Sis1,[3],600 nM
Sse1-K69M (natural protein) MSTPFGLDLGNNNSVLAVARNRGIDIVVNEVSNRSTPSVVGFGPKNRYLGETGKNKQTSNIKNTVANLMRIIGLDYHHPDFEQESKHFTSKLVELDDKKTGAEVRFAGEKHVFSATQLAAMFIDKVKDTVKQDTKANITDVCIAVPPWYTEEQRYNIADAARIAGLNPVRIVNDVTAAGVSYGIFKTDLPEGEEKPRIVAFVDIGHSSYTCSIMAFKKGQLKVLGTACDKHFGGRDFDLAITEHFADEFKTKYKIDIRENPKAYNRILTAAEKLKKVLSANTNAPFSVESVMNDVDVSSQLSREELEELVKPLLERVTEPVTKALAQAKLSAEEVDFVEIIGGTTRIPTLKQSISEAFGKPLSTTLNQDEAIAKGAAFICAIHSPTLRVRPFKFEDIHPYSVSYSWDKQVEDEDHMEVFPAGSSFPSTKLITLNRTGDFSMAASYTDITQLPPNTPEQIANWEITGVQLPEGQDSVPVKLKLRCDPSGLHTIEEAYTIEDIEVEEPIPLPEDAPEDAEQEFKKVTKTVKKDDLTIVAHTFGLDAKKLNELIEKENEMLAQDKLVAETEDRKNTLEEYIYTLRGKLEEEYAPFASDAEKTKLQGMLNKAEEWLYDEGFDSIKAKYIAKYEELASLGNIIRGRYLAKEEEKKQAIRSKQEASQMAAMAEKLAAQRKAEAEKKEEKKDTEGDVDMD,"concentration at which excess Sse1-K69M inhibits the disaggregation/refolding by 6000 nM Ssa1 + 1000 nM Sis1, against WT Sse1 (fold lower than WT Sse1)",[3],4
same,optimal concentration of Sse1-K69M for activating the disaggregation/refolding of pre-aggregated luciferase by 6000 nM Ssa1 + 1000 nM Sis1,[3],200 nM
